The target of series [1] is T1, neuramimidase-treated human suPAR (soluble recombinant uPAR) (Homo sapiens, UniProt Q03405).
T1 construct: A soluble recombinant variant of human uPAR (suPAR) was expressed in Chinese hamster ovary (dhfr) cells; made in house; host or cells: Chinese hamster ovary (dhfr) cells
Nature of the series: Biacore Binding Assay (surface plasmon resonance), ligand binding to immobilised suPAR. The settings on record: for kdiss (dissociation rate constant, off-rate): Biacore, 5° C., immobilised suPAR; for Relative kdiss: relative to the Growth Factor Domain of uPA (GFD = 1.0); for dissociation constant compared with other peptides: peptomer analogues; for human uPAR binding after introduction of spacing residues: spacer between D-arginine and L-tyrosine. The procedure: Association rate constants (kass), dissociation rate constants (kdiss) and equilibrium binding constants (kd) for various synthetic peptides and receptor binding derivatives of human uPA were determined by surface plasmon resonance (R. Karlsson et al. (1991) J. Immunol. Meths. 145:229–240) using a BIAcore2000™ instrument (Pharmacia Biosensor, Uppsala, Sweden). Due to the low isoelectric point of uPAR (pI≈4.5) terminal sialic acid residues were removed from its N-linked carbohydrates to facilitate chemical immobilisation on the sensor chip. This was accomplished by incubating purified suPAR (1 mg/ml in 50 mM phosphate, 150 mM NaCl, pH 7.4) with 5 μg/ml neuramimidase for 4 hours at 37° C. […] Coupling of the neuramimidase-treated suPAR to a BIAcore sensor chip was achieved by injection of 20 μg/ml suPAR in 10 mM sodium acetate pH 5.0 for 6 minutes at a flow rate of […] per minute using a carboxymethylated dextran matrix (CM5 sensor chip) preactivated with N-hydroxysuccinimide/N-ethyl-N′-[3-([…])propyl]carbodiimide according to the manufacturer's recommendations. Approximately 1,500–2,000 resonance units (RU) were immobilised by this procedure (corresponding to 1–2 ng suPAR/mrn^2).
Sensorgrams (RU versus time) were recorded (FIG. 2) at a flow rate of 10 μl per min at 5° C. using several different concentrations of the ligand (synthetic peptides, uPA, the amino-terminal fragment (ATF) of uPA, or the growth factor domain (GFD) of uPA) in the range of 10 to 1000 nM in running buffer (10 mM HEPES, 150 mM NaCl, 3 mM EDTA (pH 7.4) including 0.005% surfactant P-20). Stock solutions of peptides from combinatorial chemistry were made in DMSO (10 mg peptide/ml DMSO). The sensor chip was regenerated at the end of each run by injection of 0.1 M acetic acid, 0.5 M NaCl. Data obtained from parallel mock coupled flow cells (subjected to the coupling procedure in the presence of buffer only) served as blank sensorgrams for subtraction of changes in bulk refractive index. The sensorgrams obtained were analysed by non-linear least squares fitting using BIAevaluation 2.0 software (Pharmacia Biosensor, Uppsala, Sweden) assuming single-site association and dissociation models.
Purified human suPAR (1 mg/ml in 50 mM phosphate, 150 mM NaCl, pH 7.4) was incubated with 5 μg/ml neuramimidase for 4 hours at 37° C.
In order to couple the neuramimidase-treated suPAR to a BIAcore sensor chip, 20 μg/ml suPAR in 10 mM sodium acetate (pH 5.0) was injected for 6 minutes at a flow rate of 5 μl per minute using a carboxymethylated dextran matrix (CM5 sensor chip), thereby immobilising approximately 1,500–2,000 resonance units (RU), which correspond to 1–2 ng suPAR/mm^2. The CM5 sensor chip was preactivated with N-hydroxysuccinimide/N-ethyl-N′-[3-([…])propyl]carbodiimide in accordance with the manufacturer's recommendations.
Surface plasmon resonance sensorgrams (RU versus time) were recorded at a flow rate of 10 μl per min at 5° C. using several different concentrations of the ligand (i.e. the relevant peptide or GFD) in the range from 10 to 1000 nM in running buffer (10 mM HEPES, 150 mM NaCl, 3 mM EDTA (pH 7.4) including 0.005% surfactant P-20).
The sensor chip was regenerated at the end of each run by injection of 0.1 M acetic acid, 0.5 M NaCl.
Data from parallel mock coupled flow cells (subjected to the coupling procedure in the presence of buffer only) served as blank sensorgrams for subtraction of changes in bulk refractive index.
The obtained sensorgrams were analysed by non-linear least squares fitting using BIAevaluation 2.0 software (Pharmacia Biosensor, Uppsala, Sweden) assuming single-site ssociation and dissociation models.
On the technique in general: In SPR one partner is held on a chip, and binding of the other changes the refractive index at the surface.

For series [2], the target named is soluble recombinant variant of human uPAR (suPAR) (human) (UniProt Q03405). As to the kind of experiment: SPR (Biacore), ligand over immobilised neuramimidase-treated human suPAR.

These results are taken from US7026282B1, “Peptide antagonists of the human urokinase receptor and method for selecting them” (Cancerforskningsfonden AF 1989 (Fonden Til Fremme AF …, priority 1998, dated 2006).

As usually defined, the koff is the first-order rate constant of dissociation.

Entries after “also recorded” stand apart in the source; their conditions may differ. Starred links: 1 amine or outer side, 2 acyl side, 3 side chain; linkers in the order of their positions; H or OH if unused. Non-standard residues stand in square brackets, D forms with d. No end group written: not given here. DMB = N-(2,3-dimethoxybenzyl)glycine, COc1cccc(CN(CC(=O)[*:2])[*:1])c1OC; Gly(N(CH2)2(3-indolyl)) = O=C(O)CNCCc1c[nH]c2ccccc12; 2Nal = N[C@@H](Cc1ccc2ccccc2c1)C(=O)O; AMN = N-(methylnaphthalyl)glycine; Cha = N[C@@H](CC1CCCCC1)C(=O)O; Nme = COCCNCC(=O)O; βAla = NCCC(=O)O

T1 sequence (Q03405 23-305 limits assumed): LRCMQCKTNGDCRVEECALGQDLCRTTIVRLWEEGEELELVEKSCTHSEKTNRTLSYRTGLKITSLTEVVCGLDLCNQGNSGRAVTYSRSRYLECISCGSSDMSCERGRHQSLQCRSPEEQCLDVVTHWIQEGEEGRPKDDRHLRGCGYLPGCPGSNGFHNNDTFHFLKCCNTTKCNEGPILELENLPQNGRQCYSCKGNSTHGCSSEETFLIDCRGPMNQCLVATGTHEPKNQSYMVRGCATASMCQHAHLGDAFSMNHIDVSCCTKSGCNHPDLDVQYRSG
Chain of soluble recombinant variant of human uPAR (suPAR) (human) (Q03405 23-299, change not shown): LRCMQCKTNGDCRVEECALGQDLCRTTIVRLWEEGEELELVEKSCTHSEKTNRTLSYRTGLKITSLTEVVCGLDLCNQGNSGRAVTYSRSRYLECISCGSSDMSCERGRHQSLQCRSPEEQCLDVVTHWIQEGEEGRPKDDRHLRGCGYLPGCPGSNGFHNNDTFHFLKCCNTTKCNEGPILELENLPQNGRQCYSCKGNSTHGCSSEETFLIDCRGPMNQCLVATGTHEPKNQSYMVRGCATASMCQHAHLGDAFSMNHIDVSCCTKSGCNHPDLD

Take “DChaFsRYLWS (DXFSRYLWS; D-residues; non-natural residues; cyclised or stapled) [AE110]”: in series [1], the “kdiss (dissociation rate constant, off-rate)” value stood at 0.00028 s⁻¹ and the Relative kdiss was 2.0.
Consider DFFsrYLWS (DFF[dS][dR]YLWS) [AE112], for which, in series [1], the “kdiss (dissociation rate constant, off-rate)” value was found to be 0.00181 s⁻¹ and the Relative kdiss is reported as 12.9.
Consider “tChaFsrYLWS ([dT][Cha]F[dS][dR]YLWS) [AE108]”, for which, in series [1], the “kdiss (dissociation rate constant, off-rate)” value came to 0.00048 s⁻¹ and the Relative kdiss is 3.4.
Turning to “D-Cha-F-s-r-DMB-f-AMN-MEA (D[Cha]F[dS][dR][DMB][dF][AMN][Nme]) [AE126, peptide-peptoid hybrid (peptomer)]”, in series [1], the “kdiss (dissociation rate constant, off-rate)” value is 0.00037 s⁻¹; the “dissociation constant compared with other peptides” value was “same order of magnitude as the best of the peptides; also recorded: approximating those of AE105 and AE110”; the Relative kdiss was 2.6.
On to “DChaFsrβAYLWS (D[Cha]F[dS][dR][βAla]YLWS) [AE117]”, for which, in series [1], the “kdiss (dissociation rate constant, off-rate)” value is listed as “no binding”; the Relative kdiss is >>100; the “human uPAR binding after introduction of spacing residues” value is “abolished the binding”.
With “DChaFsrGYLWS (D[Cha]F[dS][dR]GYLWS) [AE116]”, in series [1], the “kdiss (dissociation rate constant, off-rate)” value is given as “no binding”; the Relative kdiss is recorded as >>100; the “human uPAR binding after introduction of spacing residues” value is listed as “abolished the binding”.
Regarding “dChaFsrYL^2nAS ([dD][Cha]F[dS][dR]YL[2Nal]S) [AE109]”, in series [1], the “kdiss (dissociation rate constant, off-rate)” value was determined as 0.00205 s⁻¹ and the Relative kdiss amounted to 14.6.
Turning to AE100 (peptide), in series [2], the Relative kdiss (relative to GFD) came to 4 and the koff was 0.00056 s⁻¹.
“D-Cha-F-s-r-L-L-W-h (D[Cha]F[dS][dR]LLW[dH]) [AE130]”: in series [1], the “kdiss (dissociation rate constant, off-rate)” value came out at 0.00051 s⁻¹ and the Relative kdiss was 3.6.
Regarding “amino-terminal-fragment (ATF) of human uPA (from UniProt P00749 21-155) (ligand)”, in series [2], the Relative kdiss (relative to GFD) was 0.86 and the koff came out at 0.00012 s⁻¹.
As to “D-Cha-F-s-r-DMB-f-TRA-MEA (D[Cha]F[dS][dR][DMB][dF][Gly(N(CH2)2(3-indolyl))][Nme]) [AE124, peptide-peptoid hybrid (peptomer)]”, in series [1], the “kdiss (dissociation rate constant, off-rate)” value came out at 0.00561 s⁻¹; the “dissociation constant compared with other peptides” value is “same order of magnitude as the best of the peptides”; the Relative kdiss stood at 40.0.
With “dChaFSrYLWS (DXFSRYLWS; D-residues; non-natural residues; cyclised or stapled) [AE107]”, in series [1], the “kdiss (dissociation rate constant, off-rate)” value came to 0.00884 s⁻¹ and the Relative kdiss is 63.1.
“D-Cha-F-s-r-Cha-L-W-l (D[Cha]F[dS][dR][Cha]LW[dL]) [AE132]”: in series [1], the “kdiss (dissociation rate constant, off-rate)” value amounted to 0.00053 s⁻¹ and the Relative kdiss is 3.8.
In the case of “DChaFSrYLWS (DXFSRYLWS; D-residues; non-natural residues; cyclised or stapled) [AE106]”, in series [1], the “kdiss (dissociation rate constant, off-rate)” value was determined as 0.00263 s⁻¹ and the Relative kdiss was found to be 18.7.
Consider “dChaFsrYLWs (DXFSRYLWS; not fully specified; D-residues; non-natural residues; cyclised or stapled)”, for which, in series [1], the “kdiss (dissociation rate constant, off-rate)” value was 0.00068 s⁻¹ and the Relative kdiss was 4.9.
Regarding “eChaFsYYLWS ([dE][Cha]F[dS]YYLWS) [AE115]”, in series [1], the “kdiss (dissociation rate constant, off-rate)” value came to 0.00167 s⁻¹ and the Relative kdiss amounted to 11.9.
Take “arFhhYLWS ([dA][dR]F[dH][dH]YLWS) [AE104]”: in series [1], the “kdiss (dissociation rate constant, off-rate)” value was “no binding” and the Relative kdiss is >>100.
The like results for SLNFSQYLWS (AE68) [reference compound] were, in that order, 0.0129 s⁻¹ and 92.1.
For the molecule SLChaFsQYLWS (SL[Cha]F[dS]QYLWS), in series [1], the “kdiss (dissociation rate constant, off-rate)” value amounted to 0.00349 s⁻¹ and the Relative kdiss was 24.9.
Consider LNFsQYLWS (LNF[dS]QYLWS) [AE111], for which, in series [1], the “kdiss (dissociation rate constant, off-rate)” value was determined as 0.00105 s⁻¹ and the Relative kdiss amounted to 7.5.
With “D-Cha-F-s-r-Y-L-Nal-h (D[Cha]F[dS][dR]YLX[dH]; not fully specified (residue 8); printed as D-Cha-F-s-r-Y-L-Nal-h) [AE131]”, in series [1], the “kdiss (dissociation rate constant, off-rate)” value stood at 0.00056 s⁻¹ and the Relative kdiss stood at 4.0.
With “ATF: amino-terminal-fragment (ATF) of human uPA”, in series [1], the “kdiss (dissociation rate constant, off-rate)” value turned out to be 0.00012 s⁻¹ and the Relative kdiss amounted to 0.86.
As to “D-Cha-F-s-r-MEA-DMB-f-AMN (D[Cha]F[dS][dR][Nme][DMB][dF][AMN]) [AE128, peptide-peptoid hybrid (peptomer)]”, in series [1], the “kdiss (dissociation rate constant, off-rate)” value is given as “no binding”; the “dissociation constant compared with other peptides” value is given as “same order of magnitude as the best of the peptides”; the Relative kdiss is given as >>100.
For the molecule “D-Cha-F-s-r-DMLB-f-Bzl-MEA [AE125, peptide-peptoid hybrid (peptomer)]”, in series [1], the “kdiss (dissociation rate constant, off-rate)” value was determined as 0.00074 s⁻¹; the “dissociation constant compared with other peptides” value is given as “same order of magnitude as the best of the peptides”; the Relative kdiss is reported as 5.3.
Consider “eChaFsyYLWS ([dE][Cha]F[dS][dY]YLWS) [AE100]”, for which, in series [1], the “kdiss (dissociation rate constant, off-rate)” value was 0.00056 s⁻¹ and the Relative kdiss amounted to 4.0.
For DchaFsrYL^1nAS [AE114], in series [1], the “kdiss (dissociation rate constant, off-rate)” value came out at 0.00059 s⁻¹ and the Relative kdiss came to 4.2.
Take “D-Cha-F-s-r-DMB-f-DMB-l (D[Cha]F[dS][dR][DMB][dF][DMB][dL]) [AE129, peptide-peptoid hybrid (peptomer)]”: in series [1], the “kdiss (dissociation rate constant, off-rate)” value amounted to 0.00054 s⁻¹ and the Relative kdiss is listed as 3.9.
Regarding DNFsrYLWS (DNF[dS][dR]YLWS) [AE113], in series [1], the “kdiss (dissociation rate constant, off-rate)” value was “no binding” and the Relative kdiss was >>100.
As to DXFSRYLWS (D-Asp at 1; beta-cyclohexyl-L-alanine (Cha) at 2; D-Arg at 5) [AE107], in series [2], the Relative kdiss (relative to GFD) turned out to be 63.1 and the off-rate (koff) turned out to be 0.00884 s⁻¹.
On to D[Cha]F[dS][dR][βAla]YLWS (not fully specified; printed as DChaFsrβAYLWS) [AE117], for which, in series [2], the Relative kdiss (relative to GFD) is above 100.
On to DXFSRYLWS (beta-cyclohexyl-L-alanine (Cha) at 2; D-Arg at 5) [AE106], for which, in series [2], the Relative kdiss (relative to GFD) stood at 18.7 and the dissociation rate constant (koff) worked out at 0.00263 s⁻¹.
On to SLNFSQYLWS [AE68], for which, in series [2], the Relative kdiss (relative to GFD) was 92.1 and the koff was found to be 0.0129 s⁻¹.
For D[Cha]F[dS][dR]GYLWS (not fully specified) [AE116], the Relative kdiss (relative to GFD) in series [2] is above 100.
